The results in this text go back to patent publication US20230227565A1 (OSE IMMUNOTHERAPEUTICS, published 2023).

For assay [1], the target named is T1, human CD127 (Interleukin-7 receptor subunit alpha) (human, UniProt P16871 21-459).
T1 construct: Endogenous CD127 on human ALL cell lines (HPB-ALL, DND41, 697, NALM6, REH) and on patient cells; no signal peptide limits are stated; also called IL7R-a; IL-7R
T1 sequence: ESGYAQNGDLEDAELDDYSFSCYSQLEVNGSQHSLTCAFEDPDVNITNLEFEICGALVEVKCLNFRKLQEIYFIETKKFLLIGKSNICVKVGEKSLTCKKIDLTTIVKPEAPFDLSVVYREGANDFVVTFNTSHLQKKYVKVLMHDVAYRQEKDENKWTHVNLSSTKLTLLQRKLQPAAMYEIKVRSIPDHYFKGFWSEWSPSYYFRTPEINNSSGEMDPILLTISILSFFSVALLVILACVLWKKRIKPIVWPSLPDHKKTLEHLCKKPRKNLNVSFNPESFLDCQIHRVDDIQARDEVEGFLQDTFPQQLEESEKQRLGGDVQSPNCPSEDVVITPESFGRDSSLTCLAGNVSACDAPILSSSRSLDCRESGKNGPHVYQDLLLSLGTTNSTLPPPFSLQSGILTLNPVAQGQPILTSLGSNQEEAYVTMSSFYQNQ
In words: flow cytometry on ALL cell lines, 10 ug/mL antibody, fold change of PE geometric mean against isotype control.

Assay [2] has as its target T2, recombinant hCD32a/FcγRIIa (human, UniProt P12318 36-218).
T2 construct: Bought recombinant protein, immobilized on plastic at 2 µg/ml
T2 sequence (looked up): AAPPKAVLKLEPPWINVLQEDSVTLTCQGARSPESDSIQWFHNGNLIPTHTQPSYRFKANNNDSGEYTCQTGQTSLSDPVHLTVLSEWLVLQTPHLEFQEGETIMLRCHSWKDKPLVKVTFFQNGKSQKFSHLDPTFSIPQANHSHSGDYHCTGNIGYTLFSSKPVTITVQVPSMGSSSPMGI
In words: ELISA, recombinant FcγR immobilized at 2 µg/ml, detection with peroxidase-labeled anti-human IgG.

In assay [3] the target is T3, recombinant hCD16a/FcγRIIIa (human, UniProt P08637 17-208).
T3 construct: Bought recombinant protein, immobilized on plastic at 2 µg/ml
The description is as above.

A further assay addresses T4, recombinant hCD64/FcγRI (human, UniProt P12314 16-288).
T4 construct: Bought recombinant protein, immobilized on plastic at 2 µg/ml
The description is as above.

T4 sequence (P12314 16-288 limits assumed): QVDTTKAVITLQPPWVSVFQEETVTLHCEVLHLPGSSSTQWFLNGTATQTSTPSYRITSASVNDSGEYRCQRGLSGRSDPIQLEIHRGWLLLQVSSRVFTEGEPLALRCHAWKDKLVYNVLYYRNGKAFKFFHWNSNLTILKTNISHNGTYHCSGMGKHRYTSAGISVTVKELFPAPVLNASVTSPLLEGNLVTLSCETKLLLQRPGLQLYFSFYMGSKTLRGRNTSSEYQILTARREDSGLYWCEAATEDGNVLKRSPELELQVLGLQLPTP
T3 sequence (P08637 17-208 limits assumed): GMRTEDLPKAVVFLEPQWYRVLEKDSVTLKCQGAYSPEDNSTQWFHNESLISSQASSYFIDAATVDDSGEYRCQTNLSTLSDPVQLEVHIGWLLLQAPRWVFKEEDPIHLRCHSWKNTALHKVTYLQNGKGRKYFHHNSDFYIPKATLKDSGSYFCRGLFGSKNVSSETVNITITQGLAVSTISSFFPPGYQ

B1: N13B2-hVL6 (antibody, human IgG4 S228P, kappa)
heavy: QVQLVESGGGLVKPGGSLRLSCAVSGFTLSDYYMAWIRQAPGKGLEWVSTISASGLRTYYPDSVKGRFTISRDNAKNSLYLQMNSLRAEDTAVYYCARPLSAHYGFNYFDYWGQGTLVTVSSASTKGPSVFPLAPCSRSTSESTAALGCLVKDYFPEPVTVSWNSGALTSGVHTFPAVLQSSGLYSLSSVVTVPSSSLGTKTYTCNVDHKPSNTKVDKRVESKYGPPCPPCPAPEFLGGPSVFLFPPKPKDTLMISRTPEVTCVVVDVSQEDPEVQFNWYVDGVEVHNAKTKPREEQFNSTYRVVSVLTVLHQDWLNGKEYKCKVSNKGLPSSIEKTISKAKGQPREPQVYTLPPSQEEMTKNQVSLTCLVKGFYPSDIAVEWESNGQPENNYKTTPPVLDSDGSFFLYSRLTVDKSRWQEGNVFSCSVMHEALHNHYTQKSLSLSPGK
light: DIQMTQSPSSLSASVGDRVTITCRTSEDIYQGLAWYQQKPGKAPKLLLYSANTLHIGVPSRFSGSGSGTDYTLTISSLQPEDFATYYCQQYYDYPLAFGGGTKVEIKRTVAAPSVFIFPPSDEQLKSGTASVVCLLNNFYPREAKVQWKVDNALQSGNSQESVTEQDSKDSTYSLSSTLTLSKADYEKHKVYACEVTHQGLSSPVTKSFNRGEC
notes: Humanized antagonist anti-CD127 IgG4 antibody; also called NB13B2-hVL6; N13B6-hVL6; copies: 2 + 2
Regarding B1, the binding result is given as “binds” in assay [1], “no binding” in assay [2], “no binding” in assay [3] and “no binding” in the assay with recombinant hCD64/FcγRI.
